Data published in patent US20060253917A1 (published 2006).
Ends that are not written are not given here.

T1: OsCAA90866 aa 100-250 (Oryza sativa)
T1 construct: bait, Gal4 DBD fusion; also called PN20311; O. sativa Chilling-Inducible Protein CAA90866
T1 chain: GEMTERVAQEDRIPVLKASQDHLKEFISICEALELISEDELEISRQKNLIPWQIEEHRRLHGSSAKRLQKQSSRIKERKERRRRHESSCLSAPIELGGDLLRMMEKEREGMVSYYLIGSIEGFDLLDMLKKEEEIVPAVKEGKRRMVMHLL

T2: OsRAP1B aa 30-180 (Oryza sativa, UniProt Q10CQ1 30-180)
T2 construct: bait, Gal4 DBD fusion; also called PN20232
T2 sequence: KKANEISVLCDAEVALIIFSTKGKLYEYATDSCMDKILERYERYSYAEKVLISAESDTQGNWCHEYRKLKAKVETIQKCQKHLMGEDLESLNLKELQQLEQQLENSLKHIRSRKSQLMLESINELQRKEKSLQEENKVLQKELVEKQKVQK

T3: OsCHIB1 aa 10-200 (Oryza sativa)
T3 construct: bait, Gal4 DBD fusion; also called PN19651; O. sativa Chitinase, Class III
T3 chain: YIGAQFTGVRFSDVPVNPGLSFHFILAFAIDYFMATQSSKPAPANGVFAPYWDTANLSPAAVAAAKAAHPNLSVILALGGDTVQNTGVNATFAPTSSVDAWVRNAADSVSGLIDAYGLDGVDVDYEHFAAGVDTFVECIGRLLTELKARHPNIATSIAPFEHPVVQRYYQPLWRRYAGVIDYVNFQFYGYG

B1: OsCAA90866 aa 1-126 (other)
chain: MVEVEEVSNKMQVQMRLHPAAAAEEEDADLPLPALFDKASHLHSLASSSSLDQEGIRKGVDLLRRCDEMVSKVGLFSSNETKDDISTANLKYLLVPYYLGEMTERVAQEDRIPVLKASQDHLKEFI
notes: prey, AD fusion; also called PN20311
B2: OsPN29883 aa 58-175 (other)
chain: YGQLKAAQPFFLLAGPNVIESEEHVLKMAKHIKGITTKLGLPLVFKSSFDKANRTSSKSFRGPGLEEGLKILEKVKATYDIPVVTDVHESHQCEAAGRVADIIQIPAFFCRQTDLLVA
notes: prey, AD fusion; also called Novel Protein PN29883, Fragment
B3: OsORF020300-2233.2 aa 1-206 (other)
chain: MVEVEEVSNKMQAQMRLHPAAAAEEEDADLPLPALFDKASHLHSLASSSSLDQEGIRKGVDLLRRCDEMVSKLGLFSSNETKDDVSTANLKYLLVPYYLGEMTERVAQEDRIPVLKASQDHLKEFISICEALELISEDELELSRQKQPDTMANRRAQKAARFKRQKAAETKLLEIKERKERRRRSLRAAALSAPIEAGEEDAFEDD
notes: prey, AD fusion; also called PN21639
B4: OsORF020300-2233.2 aa 1-190 (other)
chain: MVEVEEVSNKMQAQMRLHPAAAAEEEDADLPLPALFDKASHLHSLASSSSLDQEGIRKGVDLLRRCDEMVSKLGLFSSNETKDDVSTANLKYLLVPYYLGEMTERVAQEDRIPVLKASQDHLKEFISICEALELISEDELELSRQKQPDTMANRRAQKAARFKRQKAAETKLLEIKERKERRRRSLRAAA
notes: as for B3
B5: OsMADS8 aa 74-183 (other)
chain: SYGGPDTAIQNKENELVQSSRNEYLKLKARVENLQRTQRNLLGEDLGTLGIKELEQLEKQLDSSLRHIRSTRTQHMLDQLTDLQRREQMLCEANKCLRRKLEESNQLHGQ
notes: prey, AD fusion; also called PN20778
B6: OsMADS5 aa 121-225 (other)
chain: LSLKELEQLENQIEISLMNIRSSKNQQLLDQVFELKRKEQQLQDANKDLKRKIQETSGENMLHISCQDVGPSGHASEANQEFLHHAICDPSLHIGYQAYMDHLNQ
notes: prey, AD fusion; also called PN20770
B7: OsMADS8 aa 109-248 (other)
chain: RTQRNLLGEDLGTLGIKELEQLEKQLDSSLRHIRSTRTQHMLDQLTDLQRREQMLCEANKCLRRKLEESNQLHGQVWEHGATLLGYERQSPHAVQQVPPHGGNGFFHSLEAAAEPTLQIGFTPEQMNNSCVTAFMPTWLP
notes: as for B5
B8: OsPN22823 aa 25-106 (other)
chain: SSSGKKVPLFSLFRYADRLDVLLMVVGTVGALGNGISQPLMTVLFGNVINSFGANTSGSVLRSVTKVKVSCWTMAGERQSAR
notes: prey, AD fusion; also called Novel Protein PN22823, Similar to ABC Transporter Proteins
B9: OsPN29041 aa 5-108 (other)
chain: VQIRRALRALVDDHTDGLMDFEDTEVRSSEETDALEEARLAIEQVVIPKGESVQLLPRPPSIIASQVDLVESFKLKWESIGQEPNACLRILPQFVGVEEGGKSV
notes: prey, AD fusion; also called Novel Protein PN29041, Fragment, Similar to A. thaliana Putative ATPase
B10: OsPN22020 aa 76-170 (other)
chain: ANATDGVKPLVGSARLPLRDVLADTGIGARASRSLRLKRPSGRPHGRLEVRVAVREPKRYYDPSPAYPAPYHQQTNRDPYAYGNTTTGGYGYAYG
notes: prey, AD fusion; also called Novel Protein PN22020, Fragment, Similar to A. thaliana Putative Protein

Biological target: T1, OsCAA90866 aa 100-250
Assay: Y2H; output trait library

Binding result, binds:
B1
B2
B3
B4

Biological target: T2, OsRAP1B aa 30-180
Assay: Y2H; output trait library
Summary of the method: (§1)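 Protein-protein interactions were detected in an automated, high-throughput yeast two-hybrid assay from Myriad Genetics Inc. (Salt Lake City, Utah), with a bait clone encoding a defined amino-acid fragment of a rice protein screened against the input trait or output trait rice prey library. Interacting proteins were identified by BLAST comparison of the encoding sequences of retrieved prey clones against databases.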

Binding result, binds:
B5
B6
B7

Biological target: T3, OsCHIB1 aa 10-200
Assay: Y2H; input trait library
Summary of the method: as §1

Binding result, binds:
AVREPKRYYDPSPAYPAPYHQQTNRDPYAYGNTTTGGYGYAYG (other, not fully specified, prey, AD fusion) [OsPN22020 aa 128-170]
B8
B9
B10
